To fix the notation:
B1: MOR021454 (antibody, V domains shown)
VH: QVQLVESGGGLVKPGGSLRLSCAASGFTFSSYALSWVRQAPGKGLEWVGRIRHYKWGGTTEYAAPVKGRFTISRDDSKNTLYLQMNSLKTEDTAVYYCARDFWADHYYYFDYWGQGTLVTVSS
VL: DIALTQPASVSGSPGQSITISCTGTSSDVGYINYVNWYQQHPGKAPKLMIYEVSNRPSGVSNRFSGSKSGNTASLTISGLQAEDEADYYCASWDWYDNVVFGGGTKLTVLG
notes: IgG (human IgG1f LALA); parent MOR20151 with the printed HCDR2 stretch exchanged
B2: MOR021456 (antibody, V domains shown)
VH: QVQLVESGGGLVKPGGSLRLSCAASGFTFSSYALSWVRQAPGKGLEWVGRIRYWPDGYTTHYAASVKGRFTISRDDSKNTLYLQMNSLKTEDTAVYYCARDFWADHYYYFDYWGQGTLVTVSS
VL: DIALTQPASVSGSPGQSITISCTGTSSDVGYINYVNWYQQHPGKAPKLMIYEVSNRPSGVSNRFSGSKSGNTASLTISGLQAEDEADYYCASWDWYDNVVFGGGTKLTVLG
notes: as for B1
B3: MOR021457 (antibody, V domains shown)
VH: QVQLVESGGGLVKPGGSLRLSCAASGFTFSSYALSWVRQAPGKGLEWVGRTRMWTVGYTTHYAASVKGRFTISRDDSKNTLYLQMNSLKTEDTAVYYCARDFWADHYYYFDYWGQGTLVTVSS
VL: DIALTQPASVSGSPGQSITISCTGTSSDVGYINYVNWYQQHPGKAPKLMIYEVSNRPSGVSNRFSGSKSGNTASLTISGLQAEDEADYYCASWDWYDNVVFGGGTKLTVLG
notes: as for B1
B4: MOR021458 (antibody, V domains shown)
VH: QVQLLESGGGLVQPGGSLRLSCAASGFTFSDYALHWVRQAPGKGLEWVSSISYVGGFIYYADSVKGRFTISRDNSKNTLYLQMNSLRAEDTAVYYCARSPGLTSYHDSWGQGTLVTVSS
VL: DIVLTQPPSVSGAPGQRVTISCSGSSSNIGSNYVSWYQQLPGTAPKLLIHSNSHRPSGVPDRFSGSKSGTSASLAITGLQAEDEADYYCQSWDYESERVVFGGGTKLTVLG
notes: IgG (human IgG1f LALA); parent MOR20144 with the printed HCDR2 stretch exchanged
B5: MOR021459 (antibody, V domains shown)
VH: QVQLLESGGGLVQPGGSLRLSCAASGFTFSDYALHWVRQAPGKGLEWVSVISYVGGFKFYADSVKGRFTISRDNSKNTLYLQMNSLRAEDTAVYYCARSPGLTSYHDSWGQGTLVTVSS
VL: DIVLTQPPSVSGAPGQRVTISCSGSSSNIGSNYVSWYQQLPGTAPKLLIHSNSHRPSGVPDRFSGSKSGTSASLAITGLQAEDEADYYCQSWDYESERVVFGGGTKLTVLG
notes: as for B4
B6: MOR021461 (antibody, V domains shown)
VH: QVQLLESGGGLVQPGGSLRLSCAASGFTFSDYALHWVRQAPGKGLEWVSVISYAGGFTYYADSVKGRFTISRDNSKNTLYLQMNSLRAEDTAVYYCARSPGLTSYHDSWGQGTLVTVSS
VL: DIVLTQPPSVSGAPGQRVTISCSGSSSNIGSNYVSWYQQLPGTAPKLLIHSNSHRPSGVPDRFSGSKSGTSASLAITGLQAEDEADYYCQSWDYESERVVFGGGTKLTVLG
notes: as for B4
B7: MOR021470 (antibody, V domains shown)
VH: QVQLLESGGGLVQPGGSLRLSCAASGFTFSDYALHWVRQAPGKGLEWVSVISYAGAFTYYADSVKGRFTISRDNSKNTLYLQMNSLRAEDTAVYYCARSPGLTSYHDSWGQGTLVTVSS
VL: DIVLTQPPSVSGAPGQRVTISCSGSSSNIGSNYVSWYQQLPGTAPKLLIHSNSHRPSGVPDRFSGSKSGTSASLAITGLQAEDEADYYCQSWDYESERVVFGGGTKLTVLG
notes: as for B4
B8: MOR021465 (antibody, V domains shown)
VH: QVQLLESGGGLVQPGGSLRLSCAASGFTFSDYALHWVRQAPGKGLEWVSVISYQGAFIYYADSVKGRFTISRDNSKNTLYLQMNSLRAEDTAVYYCARSPGLTSYHDSWGQGTLVTVSS
VL: DIVLTQPPSVSGAPGQRVTISCSGSSSNIGSNYVSWYQQLPGTAPKLLIHSNSHRPSGVPDRFSGSKSGTSASLAITGLQAEDEADYYCQSWDYESERVVFGGGTKLTVLG
notes: as for B4
B9: MOR021469 (antibody, V domains shown)
VH: QVQLLESGGGLVQPGGSLRLSCAASGFTFSDYALHWVRQAPGKGLEWVSAISYQGGFIFYADSVKGRFTISRDNSKNTLYLQMNSLRAEDTAVYYCARSPGLTSYHDSWGQGTLVTVSS
VL: DIVLTQPPSVSGAPGQRVTISCSGSSSNIGSNYVSWYQQLPGTAPKLLIHSNSHRPSGVPDRFSGSKSGTSASLAITGLQAEDEADYYCQSWDYESERVVFGGGTKLTVLG
notes: as for B4
B10: MOR021463 (antibody, V domains shown)
VH: QVQLLESGGGLVQPGGSLRLSCAASGFTFSDYALHWVRQAPGKGLEWVSVISYMGGFKYYADSVKGRFTISRDNSKNTLYLQMNSLRAEDTAVYYCARSPGLTSYHDSWGQGTLVTVSS
VL: DIVLTQPPSVSGAPGQRVTISCSGSSSNIGSNYVSWYQQLPGTAPKLLIHSNSHRPSGVPDRFSGSKSGTSASLAITGLQAEDEADYYCQSWDYESERVVFGGGTKLTVLG
notes: as for B4
B11: MOR021466 (antibody, V domains shown)
VH: QVQLLESGGGLVQPGGSLRLSCAASGFTFSDYALHWVRQAPGKGLEWVSVISYMGGFKFYADSVKGRFTISRDNSKNTLYLQMNSLRAEDTAVYYCARSPGLTSYHDSWGQGTLVTVSS
VL: DIVLTQPPSVSGAPGQRVTISCSGSSSNIGSNYVSWYQQLPGTAPKLLIHSNSHRPSGVPDRFSGSKSGTSASLAITGLQAEDEADYYCQSWDYESERVVFGGGTKLTVLG
notes: as for B4
B12: MOR021467 (antibody, V domains shown)
VH: QVQLLESGGGLVQPGGSLRLSCAASGFTFSDYALHWVRQAPGKGLEWVSVISYQGGFTFYADSVKGRFTISRDNSKNTLYLQMNSLRAEDTAVYYCARSPGLTSYHDSWGQGTLVTVSS
VL: DIVLTQPPSVSGAPGQRVTISCSGSSSNIGSNYVSWYQQLPGTAPKLLIHSNSHRPSGVPDRFSGSKSGTSASLAITGLQAEDEADYYCQSWDYESERVVFGGGTKLTVLG
notes: as for B4
B13: MOR021462 (antibody, V domains shown)
VH: QVQLLESGGGLVQPGGSLRLSCAASGFTFSDYALHWVRQAPGKGLEWVSGISYQGGFIFYADSVKGRFTISRDNSKNTLYLQMNSLRAEDTAVYYCARSPGLTSYHDSWGQGTLVTVSS
VL: DIVLTQPPSVSGAPGQRVTISCSGSSSNIGSNYVSWYQQLPGTAPKLLIHSNSHRPSGVPDRFSGSKSGTSASLAITGLQAEDEADYYCQSWDYESERVVFGGGTKLTVLG
notes: as for B4
B14: MOR021434 (antibody, V domains shown)
VH: QVQLVQSGAEVKKPGSSVKVSCKASGGTFSDYAISWVRQAPGQGLEWMGGIVPILGAANYAQKFQGRVTITADESTSTAYMELSSLRSEDTAVYYCARDSSTSYYYYFDYWGQGTLVTVSS
VL: DIQMTQSPSSLSASVGDRVTITCRASQDINSWLAWYQQKPGKAPKLLIYQASNLQSGVPSRFSGSGSGTDFTLTISSLQPEDFATYYCQQIDHTPFTFGQGTKVEIKR
notes: IgG (human IgG1f LALA); parent MOR20159 with the printed HCDR2 stretch exchanged
B15: MOR021436 (antibody, V domains shown)
VH: QVQLVQSGAEVKKPGSSVKVSCKASGGTFSDYAISWVRQAPGQGLEWMGGIVPIVGTANYAQKFQGRVTITADESTSTAYMELSSLRSEDTAVYYCARDSSTSYYYYFDYWGQGTLVTVSS
VL: DIQMTQSPSSLSASVGDRVTITCRASQDINSWLAWYQQKPGKAPKLLIYQASNLQSGVPSRFSGSGSGTDFTLTISSLQPEDFATYYCQQMQTSLITFGQGTKVEIKR
notes: IgG (human IgG1f LALA); parent MOR20159 with the printed LCDR3 stretch exchanged
B16: MOR021438 (antibody, V domains shown)
VH: QVQLVQSGAEVKKPGSSVKVSCKASGGTFSDYAISWVRQAPGQGLEWMGGIVPIVGTANYAQKFQGRVTITADESTSTAYMELSSLRSEDTAVYYCARDSSTSYYYYFDYWGQGTLVTVSS
VL: DIQMTQSPSSLSASVGDRVTITCRASQDINSWLAWYQQKPGKAPKLLIYQASNLQSGVPSRFSGSGSGTDFTLTISSLQPEDFATYYCQQMHRHPITFGQGTKVEIKR
notes: as for B15
B17: MOR021437 (antibody, V domains shown)
VH: QVQLVQSGAEVKKPGSSVKVSCKASGGTFSDYAISWVRQAPGQGLEWMGGIVPIVGTANYAQKFQGRVTITADESTSTAYMELSSLRSEDTAVYYCARDSSTSYYYYFDYWGQGTLVTVSS
VL: DIQMTQSPSSLSASVGDRVTITCRASQDINSWLAWYQQKPGKAPKLLIYQASNLQSGVPSRFSGSGSGTDFTLTISSLQPEDFATYYCQQMKISLITFGQGTKVEIKR
notes: as for B15
B18: MOR021440 (antibody, V domains shown)
VH: QVQLVQSGAEVKKPGSSVKVSCKASGGTFSDYAISWVRQAPGQGLEWMGGIVPIVGTANYAQKFQGRVTITADESTSTAYMELSSLRSEDTAVYYCARDSSTSYYYYFDYWGQGTLVTVSS
VL: DIQMTQSPSSLSASVGDRVTITCRASQDINSWLAWYQQKPGKAPKLLIYQASNLQSGVPSRFSGSGSGTDFTLTISSLQPEDFATYYCQQMQESLLTFGQGTKVEIKR
notes: as for B15
B19: MOR021439 (antibody, V domains shown)
VH: QVQLVQSGAEVKKPGSSVKVSCKASGGTFSDYAISWVRQAPGQGLEWMGGIVPIVGTANYAQKFQGRVTITADESTSTAYMELSSLRSEDTAVYYCARDSSTSYYYYFDYWGQGTLVTVSS
VL: DIQMTQSPSSLSASVGDRVTITCRASQDINSWLAWYQQKPGKAPKLLIYQASNLQSGVPSRFSGSGSGTDFTLTISSLQPEDFATYYCQQMHRFPMTFGQGTKVEIKR
notes: as for B15

For this assay, the target named is APP-Avi-soluble human LOX-1(61-273) (human, UniProt P78380 61-273). Put plainly: SET, IgG vs soluble human LOX-1. How it is done:
Affinity determination for anti-LOX-1 IgGs using Solution Equilibrium Titration (SET) was basically performed as described in the literature (Friguet et al., 1985 J Immunol Methods 77: 305-319). The assays were performed in a 96-well polypropylene plate (Thermo Scientific, Catalog no. AB-1127) using a constant concentration of LOX-1 antibody mixed with different concentrations of non-biotinylated human or cynomolgus monkey LOX-1 protein and incubated at 22° C. for 14 hours with constant shaking (300 rpm).
On a pre-blocked MSD plate (Meso Scale Discovery, catalog no. L21SA) biotinylated human or cynomolgus monkey soluble LOX-1 protein was immobilized and washed afterwards. The equilibrium binding reactions were then applied to the MSD plate with immobilized LOX-1 and incubated for 30 min. The unbound material was removed by washing the plate, and the captured antibody was detected by adding Sulfo-tagged goat anti-human IgG (Meso Scale Discovery, catalog no. R3AJ-1). After incubation and washing 1×MSD read buffer T(Meso Scale Discovery, catalog no. R92TC-2) was added and the plate was developed using a Sector Imager 6000 (Meso Scale Discovery). The data were transferred to Excel for analysis and plotted using GraphPad Prism v5. The KD values were determined by fitting the data to the following equation: […]
B1 displayed a Kd of 0.7 pM. B2 displayed a Kd of 2 pM.

Molecule B3 gave a Kd of 1 pM.

B4 gave a Kd of 0.6 pM. Take B5: the Kd worked out at 0.4 pM. On to B6, for which the Kd was 0.2 pM. In the case of B7, the Kd came to 0.5 pM.

In the case of B8, the Kd worked out at 1.6 pM. As for B9, the Kd was 1 pM. Next, B10: 1.3 pM; B11: 0.6 pM.

Consider B12, for which the Kd came out at 0.9 pM.

B13: the Kd was determined as 0.9 pM. The same measure for B14: 7 pM.

On to B15, for which the Kd was 4 pM.

As to B16, the Kd turned out to be 2 pM. With B17, the Kd came to 4 pM.

Molecule B18 yielded a Kd of 6 pM. In turn, B19 came in with a Kd of 3 pM.
